Results on three molecules are retold here after publication doi:10.1101/2020.07.30.230052 (bioRxiv, 2020).

The term stoichiometry N denotes a count of units in the complex or per binding partner. As a reminder, the Kd is the constant that tells how readily two partners part at equilibrium. A low value points to a tighter complex.

The labels stand for the following.
B2: PBP4 (penicillin binding protein 4, DD-carboxy/endopeptidase) of Escherichia coli, wild type, purified (enzyme)
chain: ANVDEYITQLPAGANLALMVQKVGASAPAIDYHSQQMALPASTQKVITALAALIQLGPDFRFTTTLETKGNVENGVLKGDLVARFGADPTLKRQDIRNMVATLKKSGVNQIDGNVLIDTSIFASHDKAPGWPWNDMTQCFSAPPAAAIVDRNCFSVSLYSAPKPGDMAFIRVASYYPVTMFSQVRTLPRGSAEAQYCELDVVPGDLNRFTLTGCLPQRSEPLPLAFAVQDGASYAGAILKDELKQAGITWSGTLLRQTQVNEPGTVVASKQSAPLHDLLKIMLKKSDNMIADTVFRMIGHARFNVPGTWRAGSDAVRQILRQQAGVDIGNTIIADGSGLSRHNLIAPATMMQVLQYIAQHDNELNFISMLPLAGYDGSLQYRAGLHQAGVDGKVSAKTGSLQGVYNLAGFITTASGQRMAFVQYLSGYAVEPADQRNRRIPLVRFESRLYKDIYQNN

In series [1] the target is PBP4 lacking domain 3 (PBP4ΔD3), purified (Escherichia coli) (UniProt P24228). Nature of the series: AUC.
Series [2] addresses LpoA, full length version, purified (Escherichia coli) (UniProt P45464). Put plainly: MST.
Series [3] addresses N-terminal domain of LpoA (LpoA^N, residues G28-T256) (Escherichia coli) (UniProt P45464). Nature of the series: MST.
For series [4], the target named is B2. Nature of the series: pull-down.
Series [5] concerns the molecule itself. Nature of the series: AUC.

Sequence of N-terminal domain of LpoA (LpoA^N, residues G28-T256) (Escherichia coli) (P45464 28-256): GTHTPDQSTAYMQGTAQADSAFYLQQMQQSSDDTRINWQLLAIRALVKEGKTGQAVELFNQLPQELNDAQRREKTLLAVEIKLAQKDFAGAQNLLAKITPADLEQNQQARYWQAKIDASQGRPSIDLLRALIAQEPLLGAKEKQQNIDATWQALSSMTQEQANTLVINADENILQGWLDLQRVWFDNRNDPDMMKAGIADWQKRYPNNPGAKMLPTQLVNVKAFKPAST
Sequence of LpoA, full length version, purified (Escherichia coli) (P45464 27-678): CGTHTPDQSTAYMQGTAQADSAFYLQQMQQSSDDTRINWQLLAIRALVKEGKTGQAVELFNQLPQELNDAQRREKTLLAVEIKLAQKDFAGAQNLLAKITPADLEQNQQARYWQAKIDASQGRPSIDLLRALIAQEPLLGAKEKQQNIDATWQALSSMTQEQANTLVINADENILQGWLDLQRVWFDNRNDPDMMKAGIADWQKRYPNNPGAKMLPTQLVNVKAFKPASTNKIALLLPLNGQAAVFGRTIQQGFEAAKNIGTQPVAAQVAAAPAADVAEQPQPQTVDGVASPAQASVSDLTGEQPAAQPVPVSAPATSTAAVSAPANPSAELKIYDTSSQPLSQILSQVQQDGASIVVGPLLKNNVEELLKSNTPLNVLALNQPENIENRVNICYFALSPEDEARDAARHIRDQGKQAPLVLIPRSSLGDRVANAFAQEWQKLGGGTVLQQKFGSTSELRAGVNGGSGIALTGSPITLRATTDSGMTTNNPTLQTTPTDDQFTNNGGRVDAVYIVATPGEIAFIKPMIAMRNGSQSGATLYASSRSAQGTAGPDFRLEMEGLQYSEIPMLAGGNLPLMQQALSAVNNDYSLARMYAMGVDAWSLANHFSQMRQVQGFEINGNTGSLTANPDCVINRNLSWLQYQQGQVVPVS

As for “PBP4 lacking domain 3 (PBP4ΔD3), purified (from UniProt P24228 21-477) (enzyme)”, the stoichiometry N in series [1] was found to be 2. This molecule also registered a Kd in series [2] of 153 nM. The same molecule gave a fold decrease of app. KD against wild-type PBP4 in series [3] of 50 fold.

B1: Oligo-histidine tagged NlpI (His-NlpI) (natural protein, Escherichia coli, UniProt P0AFB1 19-294, looked up)
chain: CSNTSWRKSEVLAVPLQPTLQQEVILARMEQILASRALTDDERAQLLYERGVLYDSLGLRALARNDFSQALAIRPDMPEVFNYLGIYLTQAGNFDAAYEAFDSVLELDPTYNYAHLNRGIALYYGGRDKLAQDDLLAFYQDDPNDPFRSLWLYLAEQKLDEKQAKEVLKQHFEKSDKEQWGWNIVEFYLGNISEQTLMERLKADATDNTSLAEHLSETNFYLGKYYLSLGDLDSATALFKLAVANNVHNFVEHRYALLELSLLGQDQDDLAESDQQ
For the molecule B1, the binding result in series [4] is “binds”.
Take B2: the “stoichiometry N” value in series [5] amounted to 2.
